Experimental data reported in patent US20150368338A1 (Janssen / Centocor, published 2015).
Positions count from the first letter of the chain named.

What was measured:
IFN-αF [1] = target: T1, IFN-αF (human, UniProt P01568 24-189); assay: cell-based or functional assay
T1 chain: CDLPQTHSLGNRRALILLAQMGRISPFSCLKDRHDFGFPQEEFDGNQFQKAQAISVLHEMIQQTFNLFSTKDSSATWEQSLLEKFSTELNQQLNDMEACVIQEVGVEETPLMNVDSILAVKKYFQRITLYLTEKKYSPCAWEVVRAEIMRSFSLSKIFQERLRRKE

IFN-αC [2] = target: T2, IFN-αC (human, UniProt P01566 24-189); assay: cell-based or functional assay
IFN-αH2 = IFN-αH2 (human, UniProt P01570 24-189); assay: cell-based or functional assay
IFN-αG [3] = target: T3, IFN-αG (human, UniProt P01569 24-189); assay: cell-based or functional assay
IFN-αF [4] = target: T1, IFN-αF; assay: ProteOn SPR, cell supernatant;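 also: each binding measurement used just a single antigen concentration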
From the text: (§1) To increase the assay throughput, only one concentration of the individual antigen was used.

IFN-αC [5] = target: T2, IFN-αC; assay: ProteOn SPR, cell supernatant;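 also: each binding measurement used just a single antigen concentration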
From the text: as §1

human IFN-ω = target: T4, human IFN-ω (human, UniProt P05000 24-195); assay: ProteOn SPR, cell supernatant;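 also: each binding measurement used just a single antigen concentration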
T4 construct: Recombinant, HEK293; also called interferon omega
From the text: as §1

IFN-α4a = target: T5, IFN-α4a (human, UniProt P05014 24-189); assay: ProteOn SPR, cell supernatant;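 also: each binding measurement used just a single antigen concentration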
T5 construct: Recombinant, HEK293; also called IFN-αM1
From the text: as §1

IFN-αWA = target: T6, IFN-αWA (human, UniProt P05015 24-189); assay: ProteOn SPR, cell supernatant;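 also: each binding measurement used just a single antigen concentration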
T6 construct: Recombinant, HEK293; also called IFN-α16
From the text: as §1

IFN-αJ1 = target: T7, IFN-αJ1 (human, UniProt P01567 24-189); assay: ProteOn SPR, cell supernatant;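 also: each binding measurement used just a single antigen concentration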
T7 construct: Recombinant, HEK293; also called IFN-α7
From the text: as §1

IFN-αG [6] = target: T3, IFN-αG; assay: ProteOn SPR, cell supernatant
From the text: as §1

B1: IFWM3332 (antibody, IgG1, V domains shown)
VH: EVQLVQSGAEVKKPGESLKISCKGSGYSFTSYWIGWVRQMPGKGLEWMGIIDPSDSDTRYSPSFQGQVTISADKSISTAYLQWSSLKASDTAMYYCARHPGLNWAPDFDYWGQGTLVTVSS
VL: DIQMTQSPSSLSASVGDRVTITCRASQSIANTNLNWYQQKPGKAPKLLIHWASSLQSGVPSRFSGSGSGTDFTLTISSLQPEDFATYYCQQWYDNPLTFGQGTKVEIK
Q: For B1, which “IC50, ISRE assay” value (IFN-αF [1]) is on record?
A: 228 pM

Q: And the “IC50, ISRE assay” value (IFN-αC [2])?
A: 479 pM

Q: And the “IC50, ISRE assay” value (IFN-αH2)?
A: 92 pM

Q: What about the “IC50, ISRE assay” value (IFN-αG [3]) of the same binder?
A: 99 pM

B2: IFWM3320 (antibody, IgG1, V domains shown)
VH: B1 VH
VL: DIQMTQSPSSLSASVGDRVTITCRASQSINGVLNWYQQKPGKAPKLLIYFASSLQSGVPSRFSGSGSGTDFTLTISSLQPEDFATYYCQQSHDFPLTFGQGTKVEIK
Q: For B2, which “IC50, ISRE assay” value (IFN-αF [1]) is on record?
A: 54 pM

Q: And the “IC50, ISRE assay” value (IFN-αC [2])?
A: 392 pM

Q: What about the “IC50, ISRE assay” value (IFN-αH2) of the same binder?
A: 23 pM

Q: And the “IC50, ISRE assay” value (IFN-αG [3])?
A: 82 pM

B3: IFWM3328 (antibody, IgG1, V domains shown)
VH: B1 VH
VL: DIQMTQSPSSLSASVGDRVTITCRASQSINNLNWYQQKPGKAPKLLIYWASSLQSGVPSRFSGSGSGTDFTLTISSLQPEDFATYYCQQGYDTPFTFGQGTKVEIK
Q: Which results are given for B3?
A: IC50, ISRE assay (IFN-αF [1]): 631 pM; IC50, ISRE assay (IFN-αC [2]): 1420 pM; IC50, ISRE assay (IFN-αH2): 440 pM; IC50, ISRE assay (IFN-αG [3]): 486 pM

B4: IFWM3421 (antibody, IgG1, V domains shown)
VH: B1 VH
VL: B2 VL with N30D, V32F, H92Y, F94L, L96I
Q: Which results are given for B4?
A: IC50, ISRE assay (IFN-αF [1]): 11 pM; IC50, ISRE assay (IFN-αC [2]): 20 pM; IC50, ISRE assay (IFN-αH2): 8 pM; IC50, ISRE assay (IFN-αG [3]): 18 pM

B5: IFWM3405 (antibody, IgG1, V domains shown)
VH: B1 VH with N103A
VL: B1 VL with T32N, W92G, N95T, L97F
notes: mAb; IgG1/kappa said of the parent and of selected mAbs; also called IFWB3140
Q: Which results are given for B5?
A: Kd (IFN-αF [4]): 19 pM; Kd (IFN-αC [5]): 22 pM; Kd (human IFN-ω): 20 pM; Kd (IFN-α4a): 67 pM; Kd (IFN-αWA): 39 pM; Kd (IFN-αJ1): 36 pM; Kd (IFN-αG [6]): 15 pM; IC50, ISRE assay (IFN-αF [1]): 35 pM; IC50, ISRE assay (IFN-αC [2]): 68 pM; IC50, ISRE assay (IFN-αH2): 16 pM; IC50, ISRE assay (IFN-αG [3]): 26 pM

B6: IFWM3322 (antibody, IgG1, V domains shown)
VH: B1 VH
VL: B2 VL with N30A, G31D, V32F, D93S
Q: B6 was tested. Which “IC50, ISRE assay” value (IFN-αF [1]) did it give?
A: 117 pM

Q: And the “IC50, ISRE assay” value (IFN-αC [2])?
A: 306 pM

Q: And the “IC50, ISRE assay” value (IFN-αH2)?
A: 46 pM

Q: What about the “IC50, ISRE assay” value (IFN-αG [3]) of the same binder?
A: 83 pM

B7: IFWM3423 (antibody, IgG1, V domains shown)
VH: B1 VH with N103A
VL: B2 VL with N30D, V32F, H92Y, F94L, L96I
Q: Which results are given for B7?
A: IC50, ISRE assay (IFN-αF [1]): 8 pM; IC50, ISRE assay (IFN-αC [2]): 12 pM; IC50, ISRE assay (IFN-αH2): 4 pM; IC50, ISRE assay (IFN-αG [3]): 9 pM

B8: IFWM371 (antibody, IgG1, V domains shown)
VH: B1 VH
VL: not shown
Q: What does the source list for B8?
A: IC50, ISRE assay (IFN-αF [1]): 16000 pM; IC50, ISRE assay (IFN-αC [2]): 53900 pM; IC50, ISRE assay (IFN-αH2): 9600 pM; IC50, ISRE assay (IFN-αG [3]): 12900 pM

B9: IFWM3304 (antibody, IgG1, V domains shown)
VH: B1 VH
VL: B2 VL with N30G, G31S, V32A, H92Y
Q: Which results are given for B9?
A: IC50, ISRE assay (IFN-αF [1]): 62 pM; IC50, ISRE assay (IFN-αC [2]): 117 pM; IC50, ISRE assay (IFN-αH2): 42 pM; IC50, ISRE assay (IFN-αG [3]): 47 pM

B10: IFWM3321 (antibody, IgG1, V domains shown)
VH: B1 VH
VL: B2 VL with N30D, V32A, S91A, H92Y
Q: What does the source list for B10?
A: IC50, ISRE assay (IFN-αF [1]): 54 pM; IC50, ISRE assay (IFN-αC [2]): 266 pM; IC50, ISRE assay (IFN-αH2): 28 pM; IC50, ISRE assay (IFN-αG [3]): 34 pM

B11: IFWM3314 (antibody, IgG1, V domains shown)
VH: B1 VH
VL: B2 VL with N30D, G31R, V32A, H92F
Q: How did the “IC50, ISRE assay” value (IFN-αF [1]) turn out when B11 was run?
A: 58 pM

Q: What about the “IC50, ISRE assay” value (IFN-αC [2]) of the same binder?
A: 157 pM

Q: And the “IC50, ISRE assay” value (IFN-αH2)?
A: 40 pM

Q: And the “IC50, ISRE assay” value (IFN-αG [3])?
A: 57 pM

B12: IFWM3307 (antibody, IgG1, V domains shown)
VH: B1 VH
VL: B2 VL with N30G, G31D, V32F, S91A, H92L
Q: B12 was tested. Which “IC50, ISRE assay” value (IFN-αF [1]) did it give?
A: 170 pM

Q: And the “IC50, ISRE assay” value (IFN-αC [2])?
A: 583 pM

Q: What about the “IC50, ISRE assay” value (IFN-αH2) of the same binder?
A: 88 pM

Q: And the “IC50, ISRE assay” value (IFN-αG [3])?
A: 95 pM

B13: IFWM3310 (antibody, IgG1, V domains shown)
VH: B1 VH
VL: B2 VL with N30G, G31K, V32S, H92Y
Q: What does the source list for B13?
A: IC50, ISRE assay (IFN-αF [1]): 111 pM; IC50, ISRE assay (IFN-αC [2]): 196 pM; IC50, ISRE assay (IFN-αH2): 45 pM; IC50, ISRE assay (IFN-αG [3]): 73 pM

B14: IFWM3308 (antibody, IgG1, V domains shown)
VH: B1 VH
VL: B2 VL with N30A, G31E, V32F, H92I
Q: With B14 as the binder, how does the “IC50, ISRE assay” value (IFN-αF [1]) read?
A: 155 pM

Q: What about the “IC50, ISRE assay” value (IFN-αC [2]) of the same binder?
A: 996 pM

Q: What about the “IC50, ISRE assay” value (IFN-αH2) of the same binder?
A: 32 pM

Q: And the “IC50, ISRE assay” value (IFN-αG [3])?
A: 167 pM

B15: IFWM3410 (antibody, IgG1, V domains shown)
VH: B1 VH with N103A
VL: B1 VL
notes: mAb; IgG1/kappa said of the parent and of selected mAbs; also called IFWB3145
Q: What does the source list for B15?
A: Kd (IFN-αF [4]): 52 pM; Kd (IFN-αC [5]): 37 pM; Kd (human IFN-ω): 29 pM; Kd (IFN-α4a): 86 pM; Kd (IFN-αWA): 52 pM; Kd (IFN-αJ1): 82 pM; Kd (IFN-αG [6]): 52 pM; IC50, ISRE assay (IFN-αF [1]): 77 pM; IC50, ISRE assay (IFN-αC [2]): 168 pM; IC50, ISRE assay (IFN-αH2): 33 pM; IC50, ISRE assay (IFN-αG [3]): 55 pM

B16: IFWM3400 (antibody, IgG1, V domains shown)
VH: B1 VH with N103A
VL: B2 VL with N30A, G31D, V32F, D93S
notes: mAb; IgG1/kappa said of the parent and of selected mAbs; also called IFWB3135
Q: B16 was tested. Which Kd (IFN-αF [4]) did it give?
A: 22 pM

Q: What about the Kd (IFN-αC [5]) of the same binder?
A: 23 pM

Q: What about the Kd (human IFN-ω) of the same binder?
A: 33 pM

Q: And the Kd (IFN-α4a)?
A: 135 pM

Q: What about the Kd (IFN-αWA) of the same binder?
A: 49 pM

Q: What about the Kd (IFN-αJ1) of the same binder?
A: 60 pM

Q: What about the Kd (IFN-αG [6]) of the same binder?
A: 52 pM

Q: What about the “IC50, ISRE assay” value (IFN-αF [1]) of the same binder?
A: 43 pM

Q: And the “IC50, ISRE assay” value (IFN-αC [2])?
A: 138 pM

Q: What about the “IC50, ISRE assay” value (IFN-αH2) of the same binder?
A: 15 pM

Q: And the “IC50, ISRE assay” value (IFN-αG [3])?
A: 35 pM

B17: IFWM3399 (antibody, IgG1, V domains shown)
VH: B1 VH with N103A
VL: B2 VL with N30D, V32A, S91A, H92Y
notes: mAb; IgG1/kappa said of the parent and of selected mAbs; also called IFWB3134
Q: Which Kd (IFN-αF [4]) does the source give for B17 here?
A: 21 pM

Q: And the Kd (IFN-αC [5])?
A: 25 pM

Q: What about the Kd (human IFN-ω) of the same binder?
A: 30 pM

Q: And the Kd (IFN-α4a)?
A: 88 pM

Q: What about the Kd (IFN-αWA) of the same binder?
A: 37 pM

Q: What about the Kd (IFN-αJ1) of the same binder?
A: 50 pM

Q: And the Kd (IFN-αG [6])?
A: 30 pM

Q: What about the “IC50, ISRE assay” value (IFN-αF [1]) of the same binder?
A: 29 pM

Q: And the “IC50, ISRE assay” value (IFN-αC [2])?
A: 189 pM

Q: And the “IC50, ISRE assay” value (IFN-αH2)?
A: 13 pM

Q: And the “IC50, ISRE assay” value (IFN-αG [3])?
A: 29 pM

B18: IFWM3385 (antibody, IgG1, V domains shown)
VH: B1 VH with N103A
VL: B2 VL with N30G, G31D, V32F, S91A, H92L
notes: mAb; IgG1/kappa said of the parent and of selected mAbs; also called IFWB3120
Q: Which results are given for B18?
A: Kd (IFN-αF [4]): 41 pM; Kd (IFN-αC [5]): 41 pM; Kd (human IFN-ω): 32 pM; Kd (IFN-α4a): 178 pM; Kd (IFN-αWA): 52 pM; Kd (IFN-αJ1): 142 pM; Kd (IFN-αG [6]): 23 pM; IC50, ISRE assay (IFN-αF [1]): 66 pM; IC50, ISRE assay (IFN-αC [2]): 272 pM; IC50, ISRE assay (IFN-αH2): 29 pM; IC50, ISRE assay (IFN-αG [3]): 77 pM
